The text below walks through data of patent US20230242620A1.

Assay [1] has as its target analytical polyclonal antibody generated in Example 2. Description: SPR Biacore T100, polyclonal immobilized, 500 nM ISV, RU at end of injection.
The target of assay [2] is serum sample IHUS#B09032311A20 (pre-existing antibodies against ISV). The assay is described as follows: ECL drug displacement assay, variant as competitor against labelled SEQ ID NO:1.
The target of assay [3] is serum sample IHUS#B09032311A3 (pre-existing antibodies against ISV). Described as above.
In assay [4] the target is serum sample IHUS#B09032311A1. The description is as above.
The target in assay [5] is affinity purified antibody IHuP#002-001-ABL-08. Description: ECL bridging/competition assay, 10 ug/ml ISV, 400 ng/ml antibody, labelled SEQ ID NO:1.

B1: Nb3.10 (VHH)
VHH: EVQLVESGGGLVQAGGSLRLSCAASRSIGRLDRMGWYRHRPGEPRELVATITGGSSINYGDSVKGRFTISIDNSKNTVYLQMNSLRPEDTAVYYCNFNKYVTSRDTWGQGTLVTVSS
Molecule B1 returned a Binding (RU) in assay [1] of 91 RU.

B2: Nb3.11 (VHH)
VHH: EVQLVESGGGLVQPGGSLRLSCAASRSIGRLDRMGWYRHRPGEPRELVATITGGSSINYGDSVKGRFTISIDNSKNTVYLQMNSLKPEDTAVYYCNFNKYVTSRDTWGQGTLVTVSS
Regarding B2, the Binding (RU) in assay [1] came to 88 RU.

B3: Nb3.14 (VHH)
VHH: EVQLVESGGGLVQPGGSLRLSCAASRSIGRLDRMGWYRHRPGEPRELVATITGGSSINYGDSVKGRFTISIDNSKNTVYLQMNSLRPEDTAVYYCNFNKYVTSRDTWGQGTLVQVSS
Consider B3, for which the Binding (RU) in assay [1] is 79 RU.

B4: Nb3.1 (VHH)
VHH: EVQLVESGGGLVQAGGSLRLSCAASRSIGRLDRMGWYRHRTGEPRELVATITGGSSINYGDFVKGRFTISIDNAKNTVYLQMNNLKPEDTAVYYCNFNKYVTSRDTWGQGTQVTVSS
Molecule B4 gave a Binding (RU) in assay [1] of 2 RU.

B5: Nb3.12 (VHH)
VHH: EVQLVESGGGLVQAGGSLRLSCAASRSIGRLDRMGWYRHRPGEPRELVATITGGSSINYGDSVKGRFTISIDNSKNTVYLQMNSLRPEDTAVYYCNFNKYVTSRDTWGQGTQVTVSS
The molecule B5 returned a Binding (RU) in assay [1] of 86 RU.

B6: Nb3.15 (VHH)
VHH: EVQLVESGGGSVQPGGSLRLSCAASRSIGRLDRMGWYRHRPGEPRELVATITGGSSINYGDSVKGRFTISIDNSKNTVYLQMNSLRPEDTAVYYCNFNKYVTSRDTWGQGTLVTVSS
In the case of B6, in assay [1], the Binding (RU) worked out at 22 RU.

B7: Nb3.13 (VHH)
VHH: EVQLVESGGGLVQPGGSLRLSCAASRSIGRLDRMGWYRHRPGEPRELVATITGGSSINYGDSVKGRFTISIDNSKNTVYLQMNSLRPEDTAVYYCNFNKYVTSRDTWGQGTQVTVSS
Regarding B7, in assay [1], the Binding (RU) stood at 90 RU.

B8: Example 1C: (A14P, R39Q, K83R, T91Y, Q108L)-QA (VHH)
VHH: EVQLVESGGGLVQPGGSLRLSCAASGRTFNNYAMGWFRQAPGKEREFVAAITRSGVRSGVSAIYGDSVKDRFTISRDNAKNTLYLQMNSLRPEDTAVYYCAASAIGSGALRRFEYDYSGQGTLVTVSS
As for B8, the % reduction in assay [2] worked out at 18%; in assay [3], 18%; in assay [4] it was 3%; in assay [5] it was 58.6%. For the same molecule, the ECLU confirmatory assay worked out at 15100 ECLU in assay [2], 1810 ECLU in assay [3], 60 ECLU in assay [4] and 1210 ECLU in assay [5].

B9: Example 1C: (A14P) (VHH)
VHH: EVQLVESGGGLVQPGGSLRLSCAASGRTFNNYAMGWFRRAPGKEREFVAAITRSGVRSGVSAIYGDSVKDRFTISRDNAKNTLYLQMNSLKPEDTAVYTCAASAIGSGALRRFEYDYSGQGTQVTVSS
For B9, the % reduction in assay [2] amounted to 96%; in assay [3], 91%; in assay [4], 10%; in assay [5], 90.8%. The ECLU confirmatory assay in assay [2] stood at 668 ECLU; in assay [3], 205 ECLU; in assay [4], 56 ECLU; in assay [5], 268 ECLU.

B10: Example 1C: (Q108L) (VHH)
VHH: EVQLVESGGGLVQAGGSLRLSCAASGRTFNNYAMGWFRRAPGKEREFVAAITRSGVRSGVSAIYGDSVKDRFTISRDNAKNTLYLQMNSLKPEDTAVYTCAASAIGSGALRRFEYDYSGQGTLVTVSS
For B10, the % reduction in assay [2] came out at 62%; in assay [3], 31%; in assay [4], 5%; in assay [5], 13.2%. In addition, the ECLU confirmatory assay came out at 6990 ECLU in assay [2], 1530 ECLU in assay [3], 59 ECLU in assay [4] and 2530 ECLU in assay [5].

B11: Example 1C: wildtype (VHH)
VHH: EVQLVESGGGLVQAGGSLRLSCAASGRTFNNYAMGWFRRAPGKEREFVAAITRSGVRSGVSAIYGDSVKDRFTISRDNAKNTLYLQMNSLKPEDTAVYTCAASAIGSGALRRFEYDYSGQGTQVTVSS
Turning to B11, the % reduction in assay [2] turned out to be 53%; in assay [3] it was 20%; in assay [4], 4%; in assay [5], 7.3%. Moreover, the ECLU confirmatory assay in assay [2] came to 8680 ECLU; in assay [3], 1780 ECLU; in assay [4] it was 60 ECLU; in assay [5], 2710 ECLU.

B12: Example 1c: (A14P, R39Q, K83R,T91Y, Q108L) (VHH)
VHH: EVQLVESGGGLVQPGGSLRLSCAASGRTFNNYAMGWFRQAPGKEREFVAAITRSGVRSGVSAIYGDSVKDRFTISRDNAKNTLYLQMNSLRPEDTAVYYCAASAIGSGALRRFEYDYSGQGTLVTVSS
On to B12, for which the % reduction stood at 97% in assay [2], 90% in assay [3], 6% in assay [4] and 91.4% in assay [5]. The ECLU confirmatory assay in assay [2] was found to be 570 ECLU; in assay [3], 228 ECLU; in assay [4], 58 ECLU; in assay [5] it was 251 ECLU.

B13: Example 1C: (A14P, R39Q, K83R, T91Y, Q108L)-3A (VHH)
VHH: EVQLVESGGGLVQPGGSLRLSCAASGRTFNNYAMGWFRQAPGKEREFVAAITRSGVRSGVSAIYGDSVKDRFTISRDNAKNTLYLQMNSLRPEDTAVYYCAASAIGSGALRRFEYDYSGQGTLVTVSS
As to B13, the % reduction in assay [2] was 18%; in assay [3] it was 13%; in assay [4] it was 0%; in assay [5], -13.1%. The ECLU confirmatory assay in assay [2] was determined as 15200 ECLU; in assay [3] it was 1930 ECLU; in assay [4] it was 62 ECLU; in assay [5], 3300 ECLU.

B14: Example 1C: (A14P, K83R, Q108L) (VHH)
VHH: EVQLVESGGGLVQPGGSLRLSCAASGRTFNNYAMGWFRRAPGKEREFVAAITRSGVRSGVSAIYGDSVKDRFTISRDNAKNTLYLQMNSLRPEDTAVYTCAASAIGSGALRRFEYDYSGQGTLVTVSS
As to B14, the % reduction stood at 97% in assay [2], 93% in assay [3], 8% in assay [4] and 89.1% in assay [5]. Moreover, the ECLU confirmatory assay in assay [2] turned out to be 628 ECLU; in assay [3], 156 ECLU; in assay [4] it was 57 ECLU; in assay [5] it was 319 ECLU.

B15: Example 1C: (K83R) (VHH)
VHH: EVQLVESGGGLVQAGGSLRLSCAASGRTFNNYAMGWFRRAPGKEREFVAAITRSGVRSGVSAIYGDSVKDRFTISRDNAKNTLYLQMNSLRPEDTAVYTCAASAIGSGALRRFEYDYSGQGTQVTVSS
Consider B15, for which the % reduction in assay [2] stood at 63%; in assay [3], 37%; in assay [4] it was 1%; in assay [5], 15.7%. Besides, the ECLU confirmatory assay turned out to be 6910 ECLU in assay [2], 1400 ECLU in assay [3], 62 ECLU in assay [4] and 2460 ECLU in assay [5].

B16: Nb6.5 (VHH)
VHH: EVQLLESGGGLVQPGGSLRLSCAASGLPFSTKSMGWFRQAPGKGREFVSRISPGGTSRYYGDFVKGRFTISRDNSKNTLYLQMNSLRAEDTAVYYCASGERSTYIGSNYYRTNEYDYWGQGTLVTVSS
In assay [1], B16 showed a Binding (RU) of 66 RU.

B17: Nb4.1 (VHH)
VHH: EVQLVESGGGLVQPGGSLRLSCAASGSVFKINVMAWYRQAPGKGRELVAGIISGGSTSYADSVKGRFTISRDNAKNTLYLQMNSLRPEDTAVYYCAFITTESDYDLGRRYWGQGTLVTVSS
B17 gave a Binding (RU) in assay [1] of 51 RU.

B18: Nb6.2 (VHH)
VHH: EVQLVESGGGLVQPGGSLRLSCIASGLPFSTKSMGWFRQAPGKEREFVARISPGGTSRYYGDFVKGRFAISRDNAKNTTWLQMNSLKAEDTAVYYCASGERSTYIGSNYYRTNEYDYWGTGTQVTVSS
As to B18, the Binding (RU) in assay [1] amounted to 39 RU.
